Experimental data taken from patent US20160264664A1 (Ablynx, published 2016).
Where a chain is given by its changes, count along the chain named.

T1: mouse P2X7 (mouse, UniProt Q9Z1M0 1-595)
T1 construct: on transfected CHO or Hek293 cells, or endogenous on Yac-1 cells; also called mP2X7; mouse purinoceptor P2X7
T1 sequence: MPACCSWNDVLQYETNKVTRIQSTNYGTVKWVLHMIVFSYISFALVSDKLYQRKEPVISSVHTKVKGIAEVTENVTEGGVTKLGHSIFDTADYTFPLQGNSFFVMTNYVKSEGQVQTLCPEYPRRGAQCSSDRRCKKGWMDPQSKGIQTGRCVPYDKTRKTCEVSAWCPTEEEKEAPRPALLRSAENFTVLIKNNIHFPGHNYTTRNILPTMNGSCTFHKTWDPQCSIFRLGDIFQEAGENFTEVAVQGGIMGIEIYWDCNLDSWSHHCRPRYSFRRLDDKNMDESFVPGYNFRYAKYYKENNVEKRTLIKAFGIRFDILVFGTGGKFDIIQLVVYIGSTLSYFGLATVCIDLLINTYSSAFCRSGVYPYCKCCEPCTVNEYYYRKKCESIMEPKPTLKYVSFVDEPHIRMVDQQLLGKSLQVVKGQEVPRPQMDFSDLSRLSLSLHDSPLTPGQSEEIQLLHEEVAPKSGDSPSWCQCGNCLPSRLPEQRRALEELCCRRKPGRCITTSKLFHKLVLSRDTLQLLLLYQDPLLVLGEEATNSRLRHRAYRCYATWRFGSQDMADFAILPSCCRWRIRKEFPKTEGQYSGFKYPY

B1: P2X7PMP20E8 (VHH)
VHH: EVQLVESGGDVVQAGGSLRLSCLASGFTFDDYAIGWFRQAPGKEREGISCISSTGNVFYADSVKGRFTISSDKEKNTLYLQMNSLKPGDTAVYHCAAGHFTVDSGKVLLRTDISSWGQGTQVTVSS
notes: family 1; on phage or c-myc/His6-tagged in assays
B2: P2X7PMP7D8 (VHH)
VHH: EVQLVESGGGLVQPGGSLRLSCAASGLTLEYYNIGWFRQAPGKEREGVACIDWTEGSTFYVDSVKGRFTISTDNAKNTVYLHMNSLEPEDTAVYYCAAGWGRVITVQHMCADRSLFTSWGQGTQVTVSS
notes: family 13; on phage or c-myc/His6-tagged in assays
B3: P2X7PMP7F9 (VHH)
VHH: EVQLVESGGGLVQAGASLRVSCAASARTGSYTMGWFRQAPGKEREFVSTISWNGASTVYADSVKGRFTISRDNAKNTVSLQMNSLKPEDTAVYYCAGSISSYSSRWQDDYEYWGQGTQVTVSS
notes: family 9; on phage or c-myc/His6-tagged in assays
B4: P2X7PMP16G3 (VHH)
VHH: EVQLVESGGGLVQAGGSLRLSCAASGNDFARFSIDAMGWYRQAPGKQRELVATVTEDGTKNYADSVKGRATISRDDANNSMYLEMNTLKPEDTAVYYCKMGGLIDGAAPYEFWGRGTQVTVSS
notes: family 27; on phage or c-myc/His6-tagged in assays
B5: P2X7PMP19H4 (VHH)
VHH: EVQLVESGGGLVQAGGSLRLSCVASGRTLSTAVMGWFRQAPGKERGLVAMISWSGSMTYYAKSVKGRFTISRDNAKNTMYLQMNSLKPEDTAVYYCAADMGGGPPDGDAMPRLSSGMDYWGKGTLVTVSS
notes: family 26; on phage or c-myc/His6-tagged in assays
B6: P2X7PMP5F1 (VHH)
VHH: EVQLVESGGGLVQAGGSLRLSCAASERTYSMGWFRQAPGKEREFVAGSGWDGIPTRYADSVKGRFTISRDNAKNTVSLQMSGLKPEDTAIYYCATGTSVYHYQYWGQGTQVTVSS
notes: family 3; on phage or c-myc/His6-tagged in assays
B7: P2X7PMP13B2 (VHH)
VHH: B6 VHH with T75A
notes: as for B6
B8: P2X7PMP7F3 (VHH)
VHH: B6 VHH with G8R, G63S
notes: as for B6
B9: P2X7PMP7F1 (VHH)
VHH: B6 VHH with N74S
notes: as for B6
B10: P2X7PMP11D3 (VHH)
VHH: B6 VHH with A14P
notes: as for B6
B11: P2X7PMP11A1 (VHH)
VHH: B6 VHH with M31V, I53T
notes: as for B6
B12: P2X7PMP11G1 (VHH)
VHH: B6 VHH with Q36R
notes: as for B6
B13: P2X7PMP5B1 (VHH)
VHH: B6 VHH with W105R
notes: as for B6
B14: P2X7PMP15C7 (VHH)
VHH: EMQLVESGGGWVQAGGSLRLSCASSGSIFSAGAMGWYRQPAGKQRELVADITLGGSTNYADSVKGRFTISRDNAKNAVFLQMNSLKPEDTAVYYCNGLINTFARKIPRYAWGQGTQVTVSS
notes: family 28; on phage or c-myc/His6-tagged in assays
B15: P2X7PMP20H9 (VHH)
VHH: EVQLVESGGRVMQTGGSLRLSCAASGHTFNDYSMGWFRQAPGKELEFLAGINWSGMSTWYADSVKDRFTISRDNNKNTVFLQMNSLEPGDTAVYYCAARQWISTIILTAPSQYDYWGQGTQVTVSS
notes: family 24; on phage or c-myc/His6-tagged in assays
B16: P2X7PMP18D12 (VHH)
VHH: EVQLVESGGDLVQAGGSLKLSCVVSGVTFDDGTIGWFRQAPGKEREGIACISRVDGTTYYRDSVKGRFTVSSDSAKTTVNLQMNSLKPEDTAVYYCAADYASLCTIETGYGSLYDYWGRGTQVTVSS
notes: family 6; on phage or c-myc/His6-tagged in assays
B17: P2X7PMP4B3 (VHH)
VHH: B16 VHH with R119K
notes: as for B16
B18: P2X7PMP16F5 (VHH)
VHH: EVQLVESGGGLVQAGGSLRLSCAASGPTTFGRYTMGWFRQAPGREREFVAAISWIGGRTYYVDVVKGRFTISRDNAKKMVYLQMNSLKPDDTAVYHCAAAFQALGSPREYDYWGQGTQVTVSS
notes: family 29; on phage or c-myc/His6-tagged in assays
B19: P2X7PMP13F4 (VHH)
VHH: EVQLVESGGGLVQSGGSLRLSCAGSGFSYYIIGWFRQAPGKEREEVSCIRVTDGSTYHTNSVKGRFTMSRDNAENTVYLQMNSLKPEDTAVYSCATECQRWAYPNRIGARGQGTQVTVSS
notes: family 12; on phage or c-myc/His6-tagged in assays
B20: P2X7PMP7E8 (VHH)
VHH: EVQLVESGGGLVQAGGSLRLSCAASGRTFSSSPVGWFRQAPGKERDFVATISWNGVDTHYLDSVKGRFTISRDNALNTVHLQMHILKPEDTALYYCAASTSGSAYLPYRVYQYDSWGQGTQVTVSS
notes: family 8; on phage or c-myc/His6-tagged in assays
B21: P2X7PMP7F5 (VHH)
VHH: B20 VHH with Y111H
notes: as for B20
B22: P2X7PMP6D7 (VHH)
VHH: EVQLVESGGGLVQAGGSLRLSCAASGRTFSSLAMGWLRQAPGKEREFVSGISRGGTSTYYADSVKGRLTISRDNAKNTMYLQMNSLKPEDTAVYYCAGSPVLSIVLDTRGLEYWGQGTQVTVSS
notes: family 7; on phage or c-myc/His6-tagged in assays
B23: P2X7PMP4G4 (VHH)
VHH: EVQLMESGGGLVQAGGPLRLSCAASGRTVSDYGMGWFRQAPGKEREFVASINWSGTYTRYIDSVEGRFTISRDNTENTLYLQMNNLKAEDTAVYYCAYFLGPNWYSDYGRPSSYDFYGQGTQVTVSS
notes: family 4; on phage or c-myc/His6-tagged in assays
B24: P2X7PMP19A7 (VHH)
VHH: B23 VHH with E1K, M5V, P17S, E44L, T56I, E76K, K87R, D107N
notes: as for B23
B25: P2X7PMP19D12 (VHH)
VHH: B23 VHH with M5V, P17S, E44L, T56I, E76K, D107N, D115G
notes: as for B23
B26: P2X7PMP20B8 (VHH)
VHH: B23 VHH with M5V, P17S, R45C
notes: as for B23
B27: P2X7PMP13E9 (VHH)
VHH: EVQLVESGGGLVQPGESLRLSCTASRFDLDYYDIAWFRQAPGKEREGVSCSFTNDGSTYYADSVKGRFTMSRNNDHRTVYLQMTSLQPEDTAVYTCAVGPLTRRRQCVPGDFSMDFWGEGTLVTVSS
notes: family 22; on phage or c-myc/His6-tagged in assays

biological target: T1, mouse P2X7; assay: Table A-1 'P2X7 function'; screening on mP2X7-expressing cells

Row | Binder | binding result
1 | B1 | binds
2 | B2 | binds
3 | B3 | binds
4 | B4 | binds
5 | B5 | binds
6 | B6 | binds
7 | B7 | binds
8 | B8 | binds
9 | B9 | binds
10 | B10 | binds
11 | B11 | binds
12 | B12 | binds
13 | B13 | binds
14 | B14 | binds
15 | B15 | binds
16 | B16 | binds
17 | B17 | binds
18 | B18 | binds

biological target: T1, mouse P2X7; assay: phage ELISA on fixed mP2X7-CHO vs untransfected CHO cells (minimally 2-fold)
Experimental: Sub-confluent cells were rinsed with PBS and fixed using 4% paraformaldehyde in PBS for 10 minutes at RT. Fixed cells were washed three times with PBS, and blocked with 2% BSA in PBS for 2 hours. Following blocking, 10-fold diluted culture supernatant containing phage was added and incubated for 1 hour. Cell-bound phage was detected via mouse anti-M13-HRP-conjugate (GE Healthcare, Cat nr. E2886). Rat mAb Hano43 was used as positive control.

Row | Binder | binding result
19 | B19 | binds
20 | B20 | binds
21 | B21 | binds
22 | B22 | binds
23 | B23 | binds
24 | B24 | binds
25 | B25 | binds
26 | B26 | binds
27 | B27 | binds
